Assay results reported in patent US20080318246A1 (ALBERT EINSTEIN COLLEGE OF MEDICINE OF YESHIVA UNIVERSITY, published 2008).
Square brackets hold non-standard residues; d marks the D form. Carminic acid = quencher bound covalently; Ala(Pyr) = not defined here; Dap = NC[C@H](N)C(=O)O

Target: T1, 14-3-3τ (UniProt P27348 1-245)
T1 sequence (looked up): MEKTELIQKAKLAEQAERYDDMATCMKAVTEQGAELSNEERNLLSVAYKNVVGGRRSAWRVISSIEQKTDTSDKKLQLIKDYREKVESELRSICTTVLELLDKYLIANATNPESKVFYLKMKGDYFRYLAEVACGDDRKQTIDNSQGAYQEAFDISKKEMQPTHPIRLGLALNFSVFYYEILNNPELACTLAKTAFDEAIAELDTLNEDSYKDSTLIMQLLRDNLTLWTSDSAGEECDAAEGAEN
Experiment: cell-based or functional assay

For Ac-G[Ala(Pyr)]TGRR[Dap](Carminic acid)SLPA-NH2 (reading uncertain; also: Ser phosphorylated by PKA in the assay) [P14, AcGAla(Pyr)TGRRDap(Carminic acid)SLPA-amide, serine-phosphorylated by PKA in the assay], the “fold increase in fluorescence upon phosphorylation by PKA” value was 2.2 fold.
